Molecular target: T1, human ANG-2 (R&D Systems) (human, UniProt O15123 68-496, limits assumed, biotinylated in the Tie-2 competition ELISA (site not stated))
T1 construct: Protein bought from R&D Systems; It was unlabelled in the Octet assay and biotinylated in the ELISA; also called angiopoietin-2; ANGPT2
T1 sequence: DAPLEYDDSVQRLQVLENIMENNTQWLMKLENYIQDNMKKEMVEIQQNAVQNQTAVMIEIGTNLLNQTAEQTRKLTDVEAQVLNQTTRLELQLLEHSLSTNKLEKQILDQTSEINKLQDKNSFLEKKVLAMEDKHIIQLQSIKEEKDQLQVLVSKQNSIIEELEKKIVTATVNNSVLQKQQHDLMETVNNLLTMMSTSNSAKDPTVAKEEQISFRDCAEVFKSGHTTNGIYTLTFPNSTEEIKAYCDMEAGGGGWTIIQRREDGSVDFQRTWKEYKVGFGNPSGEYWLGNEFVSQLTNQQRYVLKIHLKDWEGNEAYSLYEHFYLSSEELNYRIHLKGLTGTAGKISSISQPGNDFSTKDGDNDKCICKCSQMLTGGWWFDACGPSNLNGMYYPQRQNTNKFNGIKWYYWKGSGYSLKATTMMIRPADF
Test: BLI (Octet QKe); HCAb captured on anti-hIgG Fc tips, ANG-2 at 20 to 500 nM in solution
Experimental: Affinity measurements were performed using a fortéBIO OCTET® QK^e system equipped with anti-hlgG Fc capture (AHC) biosensor tips and strepavidin-coated biosensors (fortéBIO, Menlo Park, Calif.). For AHC affinity measurement, purified anti-ANG-2 HCAb A33A8 was tested for its binding capacity with AHC sensor tips. Tips were loaded using 20 μg/ml anti-ANG-2 A33A8 HCAb. Loading proceeded for 300 sec resulting in capture levels of between 1.8 and 2 nm. ANG-2 (R & D systems) antigen was prepared for binding analysis by dilution to concentrations of 20 to 500 nM in 1×PBS. Association was initiated and monitored for 200 sec, after which tips were transferred to 1×PBS buffer without Factor protein (Gibco, PBS pH 7.2), in order to monitor dissociation. Anti-ANG-2 A33A8 HCAb binding activity was then monitored in real time using bio-layer interferometry analysis. Antigen binding affinities were calculated for the tested ANG-2 based on the measured association (“Kassoc”) and dissociation (“Kdissoc”) constants. Data were processed and analyzed using the OCTET® data analysis software 6.4 (fortéBIO) (FIG. 4).

Kd: < 1 pM
B1: A33A8 human anti-ANG-2 HCAb (antibody, human IgG1, V domains shown)
VH: QVQLVESGGGLVQPGGSLRLSCAASGFTFSSYWMHWVRQAPGKGLVWVSRINSDGSSTSYADSVKGRFTISRDNAKNTLYLQMNSLRAEDTAVYYCAREGYSSGGQFDYWGQGTLVTVSS
notes: also called anti-ANG-2 HCAb A33A8; anti-ANG-2 A33A8 HCAb
